Measurements from the RNAGym collection of RNA variant scans (doi:10.7554/elife.90254).

B1: OR4K15 (parent)
chain: GUUAACGGUCAUAGGCCAUGGAAACUAGGAGCACCAUUUCGCUGCCAGUGAAGAAAUGAACAAAGAAAAUCUGGGCCAGGCAGGCAUCAAAAGAAAUAGUCUUGCGCUCAACCAGAAAGUCUGUAAUCAUUUUAAGGGUA

Variants of: B1
Assay: self-cleavage, relative activity (ratio to wild type); higher = more cleavage; in vitro, sequencing; the parent is a self-cleaving ribozyme
For A4U A95G, the self-cleavage was 1.65. In the case of A5G C113U, the self-cleavage is reported as 0.16. A33G C112G gave a self-cleavage of 0.02. U2A U130C gave a self-cleavage of 0.85. With G29U A63G the self-cleavage was 2.9. Variant A18U G48U has a self-cleavage of 1.24. With A63G A111C the self-cleavage was 0.02. With A69G U132A the self-cleavage was 0.69. A55G A90G gave a self-cleavage of 0.76. Work on A59C A60G yielded a self-cleavage of 0.56. For C35A A36U, the self-cleavage was 0.97. With U39A A78C the self-cleavage was 0.23. G7A A86G showed a self-cleavage of 0.94. For A23G A114U, the self-cleavage was 0.07. Variant A63G U103C has a self-cleavage of 1.38. For A67U A91G, the self-cleavage was 1.91. With C25U A62G the self-cleavage was 0.59. U49G U139C gave a self-cleavage of 1.49. U9A U103C gave a self-cleavage of 0.49. With A82G A92C the self-cleavage was 0.78. Variant G75C A126G has a self-cleavage of 0.12. A96G A129G showed a self-cleavage of 1.11. For U49A U70C, the self-cleavage was 0.3. Work on U12A A111G yielded a self-cleavage of 0.08. For A51G A68U, the self-cleavage was 1.9. Work on U39A A59G yielded a self-cleavage of 1.6. Work on A33C U122C yielded a self-cleavage of 1.09. In the case of G15U A78G, the self-cleavage is reported as 0.14. With A47G A68U the self-cleavage was 1.17. A23G A94C showed a self-cleavage of 1.14. With A96G U108A the self-cleavage was 0.02. In the case of G7U U108C, the self-cleavage is reported as 0.02. Variant A23G A94G has a self-cleavage of 1.42. Work on A111G A140G yielded a self-cleavage of 0. In the case of U57C G106A, the self-cleavage is reported as 0. U57A A82U gave a self-cleavage of 0.31. U43C G79U gave a self-cleavage of 0.12. With G7A G74U the self-cleavage was 0.2. Variant A66U U108C has a self-cleavage of 0.02. In the case of G99A U103C, the self-cleavage is reported as 0.07. Variant C25G A27U has a self-cleavage of 1.45. With A59G A63G the self-cleavage was 1.4. With A90G U124C the self-cleavage was 0.78. With A114G U133C the self-cleavage was 0.12. Variant U103C G106A has a self-cleavage of 0.02. Work on A23G A36C yielded a self-cleavage of 1.41. In the case of A66U A135G, the self-cleavage is reported as 1.83. A78C A82G gave a self-cleavage of 0.11. In the case of U38C A52C, the self-cleavage is reported as 0.68. In the case of A33G A64U, the self-cleavage is reported as 0.99. Variant G29A U97C has a self-cleavage of 1.22. In the case of U26A U120G, the self-cleavage is reported as 1.26. U43A A126G gave a self-cleavage of 1.25. Work on U38C G119U yielded a self-cleavage of 1.69. U49C A59C showed a self-cleavage of 0.9. C10A A86G showed a self-cleavage of 0.31. With A4G A114C the self-cleavage was 0.17. With A82U A126C the self-cleavage was 0.05. Variant A90G A114G has a self-cleavage of 0.16. With A134G A140G the self-cleavage was 0.28. Work on A18G C61U yielded a self-cleavage of 1.18. Variant G79A U127C has a self-cleavage of 0.06. In the case of A69G G83A, the self-cleavage is reported as 2.11. Variant U38C A62G has a self-cleavage of 1.37. U12C showed a self-cleavage of 1.01. With A13U U87A the self-cleavage was 1.61. For A13G C40U, the self-cleavage was 1.03. A23G U102C showed a self-cleavage of 1.87. U12C U122C gave a self-cleavage of 1.05. A68C U124C gave a self-cleavage of 1.22. C61G showed a self-cleavage of 1.24. In the case of C35U A95G, the self-cleavage is reported as 1.74. In the case of A55U A92U, the self-cleavage is reported as 2.65. Variant U3C U130A has a self-cleavage of 1.27. In the case of G7U U103C, the self-cleavage is reported as 0.65. In the case of A11U, the self-cleavage is reported as 0.87. U3A A36U gave a self-cleavage of 1.61. Work on A90U A110G yielded a self-cleavage of 0.08. With A24C C40A the self-cleavage was 1.99. C10A U124C showed a self-cleavage of 0.79. For U26C G136A, the self-cleavage was 2.02. In the case of A54G A135U, the self-cleavage is reported as 0.73. A52G A89U gave a self-cleavage of 1.7. For C35U A51G, the self-cleavage was 1.06. For U102G U133A, the self-cleavage was 1.45. Work on A52G A64C yielded a self-cleavage of 2.64. Work on A64G A110G yielded a self-cleavage of 0.22. In the case of G93A A135G, the self-cleavage is reported as 2.27. In the case of A52G A95U, the self-cleavage is reported as 1.37. With G7A A66G the self-cleavage was 1.18. Variant A23G U103A has a self-cleavage of 0.75. A94U A117G showed a self-cleavage of 1.95. Work on A82U A135G yielded a self-cleavage of 0.22. Work on A22G A98G yielded a self-cleavage of 0.88. With U102A A125G the self-cleavage was 0.42. U57C A89U gave a self-cleavage of 0.77. Variant U37C A66G has a self-cleavage of 1.73. A59G A116C gave a self-cleavage of 0.07. U19C A78G gave a self-cleavage of 0.29. For G31A A92G, the self-cleavage was 1.57. In the case of A60C A95G, the self-cleavage is reported as 1.47. In the case of C85U A91G, the self-cleavage is reported as 0.52. With A5G A89G the self-cleavage was 1.23. In the case of U87C G137A, the self-cleavage is reported as 2.3. For G14A A91G, the self-cleavage was 1.67. In the case of C85U A96G, the self-cleavage is reported as 1.24. With U19C A62C the self-cleavage was 1.65. With A51U A55U the self-cleavage was 1.52. With A27U U49C the self-cleavage was 2.12. Variant U3G G41U has a self-cleavage of 1. Work on G28A U97C yielded a self-cleavage of 0.59. In the case of A98U U100C, the self-cleavage is reported as 2.47. With A117G A134G the self-cleavage was 0.61. Variant C34A A60G has a self-cleavage of 1.39. Variant A47G U97C has a self-cleavage of 1.08. Work on A5G A94U yielded a self-cleavage of 0.8. In the case of A69G A91U, the self-cleavage is reported as 1.63. A22U A69U gave a self-cleavage of 2.67. In the case of U38C C112U, the self-cleavage is reported as 0.02. With A36U U38C the self-cleavage was 1.51. In the case of A13C U127C, the self-cleavage is reported as 0.65. In the case of A91G G106A, the self-cleavage is reported as 0.01. In the case of C46A, the self-cleavage is reported as 1.44. Work on A55G U57G yielded a self-cleavage of 1.41. With A66G U97A the self-cleavage was 2.11. In the case of U103A A118G, the self-cleavage is reported as 0.41. A11U A118G gave a self-cleavage of 0.59. Work on A60G G74U yielded a self-cleavage of 0.18. For A51U G137A, the self-cleavage was 1.43. C45U G119A gave a self-cleavage of 1.99. With A47G A116G the self-cleavage was 0.35. A33U A116G gave a self-cleavage of 1.55. A5U U97C showed a self-cleavage of 0. In the case of U43G, the self-cleavage is reported as 1.7. U102C A117U gave a self-cleavage of 0.83. A114G A126G gave a self-cleavage of 0.28. A5U A82U showed a self-cleavage of 0.38. A62G A63G showed a self-cleavage of 1.21. A96U A98G showed a self-cleavage of 1.31. A18G G80U gave a self-cleavage of 0.14. A59U A125G showed a self-cleavage of 0.43. C17U G74A showed a self-cleavage of 0.13. U43C U49C showed a self-cleavage of 1.22. For G106A U139A, the self-cleavage was 0. For A30G C112A, the self-cleavage was 0.02. U39C G106A gave a self-cleavage of 0.01. A67G A90G gave a self-cleavage of 0.96. A23U A52G gave a self-cleavage of 1.2. Work on U57C A69C yielded a self-cleavage of 0.84. Work on A95G U124C yielded a self-cleavage of 1.85. With A18U A96G the self-cleavage was 1.62. Variant A62U A64G has a self-cleavage of 1.46. With G41C U87C the self-cleavage was 2.03. A51G A62C gave a self-cleavage of 1.58. With C32G A54U the self-cleavage was 1.14. With U102C U122A the self-cleavage was 1.51. Work on A69C U132C yielded a self-cleavage of 2.58. For A51U A66G, the self-cleavage was 2.03. Variant U120A A135G has a self-cleavage of 1.1. C101A A114G showed a self-cleavage of 0.02.
